Test [1] has as its target HIS-tagged GATE-16wt (aa 1-115) (human, UniProt P60520 1-115). The experiment in a line: BLI; Octet RED96; N-terminally biotinylated peptides on streptavidin biosensors, quenched with biocytin; HIS-tagged LC3B/GATE-16 proteins as analyte, 6.8 nM to 5 μM (LC3Bwt on NDP52 peptide: 312.5 nM to 20 μM); DPBS with 150 mM NaCl, 1% BSA, 0.02% Tween 20; 1:1 global fit. The conditions noted are these: both partners purified. (In general: In BLI a coated tip is dipped into the sample, and binding shifts an interference pattern.)

In test [2] the target is HIS-tagged LC3Bwt (aa 1-119) (human, UniProt Q9GZQ8 1-119). The description is as above. The conditions noted are these: both partners purified.

Non-standard residues stand in square brackets, D forms with d. No end group written: not given here. *: point of attachment. Biotin = O=C1N[C@H]2[C@H](CS[C@H]2CCCCC(=O)*)N1; pS = N[C@@H](COP(=O)(O)O)C(=O)O

As usually defined, the Kd is the free concentration of one partner at which half of the binding sites on the other are occupied at equilibrium, for simple one-to-one binding.

Sequence of HIS-tagged GATE-16wt (aa 1-115) (P60520 1-115): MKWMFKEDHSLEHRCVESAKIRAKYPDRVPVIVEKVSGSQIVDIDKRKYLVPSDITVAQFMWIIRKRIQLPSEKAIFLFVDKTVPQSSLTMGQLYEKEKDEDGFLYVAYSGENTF

B1: p62 LIR peptide (332-346), biotinylated (peptide)
peptide: Biotin-SGGDDDWTHLSSKEV
notes: human p62/SQSTM1 LIR peptide, residues 332-346; also called p62 (332–346); source: synthetic peptide (GenScript, over 75% purity)
Take B1: the binding result in test [1] was “binds”.

B2: OPTN LIR peptide (172-186), biotinylated (peptide)
peptide: Biotin-GSSEDSFVEIRMAEG
notes: human optineurin (OPTN) LIR peptide, residues 172-186; also called OPTN (172–186); OPTN peptide; source: synthetic peptide (GenScript, over 75% purity)
In test [2], B2 yielded a Kd of 8.4 µM.

B3: pS177 OPTN LIR peptide (172-186), biotinylated (peptide)
peptide: Biotin-GSSED[pS]FVEIRMAEG
notes: also called pS177 OPTN (172–186); pS177 OPTN peptide; source: synthetic peptide (GenScript, over 75% purity)
In test [2], B3 gave an equilibrium dissociation constant (Kd) of 0.8 ± 0.048 µM.
